The source of these data is patent US7118886 (HSC RESEARCH AND DEVELOPMENT LIMITED PARTNERSHIP, dated 2006).

The experiment deals with T1, GAL4 DNA binding domain fused to the five SH3 domains of Ese1 (amino acids 665-1213) (mouse, UniProt P04386 1-147 (Saccharomyces cerevisiae entry)).
T1 construct: Yeast two-hybrid bait; also called pGBT9Ese1A3.3; SH3 domain bait of Ese1
Briefly: yeast two-hybrid screen with amino acids 665-1213 of Ese1 as bait.

B1: Mouse YNK1 partial protein, GAL4 activation domain library clone (other, not shown: large carriers)
chain: LRAEGAKFRAVLDKAVQADGQVKERYQSHRDTIALLCKPEPELNAAIPSANPAKTMQGSEVVSVLKSLLSNLDEIKKERESLENDLKSVNFDMTSKFLTALAQDGVINEEALSVTELDRIYGGLTSKVQESLKKQEGLLKNIQVSHQEFSKMKQSNNEANLREEVLKNLATAYDNFVELVANLKEGTKFYNELTEILVRFQNKCSDIVFARKTERDELLKDLQQSIAREPSAPSIPPPAYQSSPAAGHAAAPPTPAPRTMPPAKPQPPARPPPPVLPANRVPPASAAAAPAGVGTASAAPPQTPGSAPPPQAQGPPYPTYPGYPGYCQMPMPMGYNPYAYGQYNMPYPPVYHQSPGQAPYPGPQQPTYPFPQPPQQSYYPQQ
Turning to B1, the binding result is on record as “binds”.
